Where two headings read alike, the source gives them in different places.
Target: T1, PhoB~P (phosphorylated response regulator PhoB) (Escherichia coli) (UniProt P0AFJ5)
T1 sequence: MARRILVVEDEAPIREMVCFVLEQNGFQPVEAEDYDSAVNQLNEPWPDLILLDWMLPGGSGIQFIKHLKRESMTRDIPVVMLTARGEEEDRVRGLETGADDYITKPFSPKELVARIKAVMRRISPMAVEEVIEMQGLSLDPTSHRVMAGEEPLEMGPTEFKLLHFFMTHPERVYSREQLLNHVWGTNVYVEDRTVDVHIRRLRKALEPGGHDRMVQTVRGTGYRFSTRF
Experiment: EMSA

Substance | Kd [nM] | Kd (cited from earlier work) [nM]
ATCACATGGTCCTGCTGGAGTTCGTGACCGCCGCCGGGATCACTCTCGGCATGGACGAGCTGTACAAGTAGCTGACCCGGGGAGGGTCGTTCTGTCATAAAACTGTCATATTCCACCGGGAAGGCTTGAGCTCCTAGATACATTCAAATATGTATCCGCTCATGAGACAATAACCCTGATA (double strand) [Decoy DNA (1 PhoB consensus site)] | 200 | –
phnC promoter PhoB site DNA | – | 1500

Reference: PMC8599769
